This is an account of results in patent publication US20220168438A1 (Daiichi Sankyo, published 2022).

For one experiment, the target named is T1, human CLDN6 (human, UniProt P56747 1-220).
T1 construct: Four-transmembrane protein; It was expressed on 293T cells from human CLDN6/pCMV-Entry (OriGene) and on CHO-K1 cells by cDNA transfection; it was endogenous in the NTERA-2 lysate used for immunoprecipitation; also called claudin-6; human claudin-6
T1 sequence: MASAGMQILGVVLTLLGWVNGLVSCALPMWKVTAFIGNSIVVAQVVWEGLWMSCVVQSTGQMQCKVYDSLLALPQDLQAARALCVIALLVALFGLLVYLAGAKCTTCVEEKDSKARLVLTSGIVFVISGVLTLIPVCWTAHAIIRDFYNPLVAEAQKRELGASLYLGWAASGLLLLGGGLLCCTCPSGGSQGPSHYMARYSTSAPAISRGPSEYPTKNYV
Description: FACS on CHO-K1 cells transfected with human claudin-6 cDNA.

The next experiment addresses T2, human CLDN3 (human, UniProt O15551 1-220).
T2 construct: whole, on cells
T2 sequence (looked up): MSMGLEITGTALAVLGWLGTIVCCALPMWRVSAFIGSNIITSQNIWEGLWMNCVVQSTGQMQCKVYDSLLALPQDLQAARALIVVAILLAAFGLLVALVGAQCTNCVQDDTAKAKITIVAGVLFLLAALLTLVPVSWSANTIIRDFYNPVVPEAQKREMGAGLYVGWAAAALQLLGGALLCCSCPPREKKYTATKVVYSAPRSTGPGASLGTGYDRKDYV
The experiment is described as follows: flow cytometry on transiently transfected 293T cells. As for the experimental part: (§1) Binding activity of the mouse anti-CLDN6 antibodies produced in Example 6 to human CLDN6 and its family molecules, CLDN3, CLDN4, and CLDN9, was evaluated by using a flow cytometry method. Human CLDN3/pCMV6-Entry, human CLDN4/pCMV6-Entry, human CLDN6/pCMV-Entry, human CLDN9/pCMV6-Entry, or pCMV6-Entry purchased from OriGene Technologies, Inc. was transiently transferred into 293T cells (Thermo Fisher Scientific, HCL4517) by using Lipofectamine 2000 (Thermo Fisher Scientific), and the cells were cultured under conditions of 37° C. and 5% CO₂ overnight, and then a cell suspension was prepared. The transfected 293T cell suspension was centrifuged to remove the supernatant, and a mouse anti-CLDN6 antibody (clone number: B1 or C7) or a mouse IgG1 control antibody (R&D Systems, Inc.) was then added and suspended to a final concentration of 30 μg/mL, 10 μg/mL, 3.3 μg/mL, or 1.1 μg/mL, and the resultant was left to stand at 4° C. for 1 hour. The cells were washed twice with Dulbecco's phosphate buffered saline (Sigma-Aldrich Co. LLC) containing 5% fetal bovine serum (Hyclone) (hereinafter, referred to as 5% FBS-containing PBS), and FLUORESCEIN-CONJUGATED GOAT IGG FRACTION TO MOUSE IGG (WHOLE MOLECULE) (MP Biomedicals, Inc.) 500-fold diluted with 5% FBS-containing PBS was then added thereto, and the cells were suspended and left to stand at 4° C. for 1 hour. After washing twice with 5% FBS-containing PBS, detection was carried out by using a flow cytometer (FC500; Beckman Coulter, Inc.). Data analysis was carried out by using FlowJo (Tree Star, Inc.). To confirm each transfection, the cells were permeabilized with 0.25% Tween 20-containing PBS, and then a mouse anti-FLAG antibody (Sigma-Aldrich Co. LLC) was used. […] In each graph in FIG. 11, the ordinate represents FITC fluorescence intensity indicating the amount of the binding antibody and the abscissa represents antibody concentrations.
(§2) The binding activity of the humanized anti-CLDN6 antibody produced in Example 10 to human CLDN6 and its family molecules, CLDN3, CLDN4, and CLDN9, was evaluated by using a flow cytometry method.

A further experiment has as its target T3, human CLDN4 (human, UniProt O14493 1-209).
T3 construct: whole, on cells
T3 sequence (looked up): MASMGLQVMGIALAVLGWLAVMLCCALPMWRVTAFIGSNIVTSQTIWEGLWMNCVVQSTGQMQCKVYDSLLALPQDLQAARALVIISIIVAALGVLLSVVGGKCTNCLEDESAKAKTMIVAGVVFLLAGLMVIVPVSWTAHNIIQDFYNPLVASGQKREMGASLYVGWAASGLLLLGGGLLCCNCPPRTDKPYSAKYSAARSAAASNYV
Described as above. As for the experimental part: as §1, §2

For the next experiment, the target named is T4, human CLDN9 (human, UniProt O95484 1-217).
T4 construct: Expressed on 293T cells from human CLDN9/pCMV6-Entry (OriGene); Transfection was confirmed with an anti-FLAG antibody
T4 sequence: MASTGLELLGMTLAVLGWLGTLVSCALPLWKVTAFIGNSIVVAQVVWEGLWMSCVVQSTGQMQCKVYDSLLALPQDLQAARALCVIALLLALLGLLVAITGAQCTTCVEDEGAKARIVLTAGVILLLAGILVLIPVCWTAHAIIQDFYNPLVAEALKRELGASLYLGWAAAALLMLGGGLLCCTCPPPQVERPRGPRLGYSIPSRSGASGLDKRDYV
Description: flow cytometry on transiently transfected 293T cells, 1.1-30 µg/mL. As for the experimental part:
Binding activity of the mouse anti-CLDN6 antibodies produced in Example 6 to human CLDN6 and its family molecules, CLDN3, CLDN4, and CLDN9, was evaluated by using a flow cytometry method. Human CLDN3/pCMV6-Entry, human CLDN4/pCMV6-Entry, human CLDN6/pCMV-Entry, human CLDN9/pCMV6-Entry, or pCMV6-Entry purchased from OriGene Technologies, Inc. was transiently transferred into 293T cells (Thermo Fisher Scientific, HCL4517) by using Lipofectamine 2000 (Thermo Fisher Scientific), and the cells were cultured under conditions of 37° C. and 5% CO₂ overnight, and then a cell suspension was prepared. The transfected 293T cell suspension was centrifuged to remove the supernatant, and a mouse anti-CLDN6 antibody (clone number: B1 or C7) or a mouse IgG1 control antibody (R&D Systems, Inc.) was then added and suspended to a final concentration of 30 μg/mL, 10 μg/mL, 3.3 μg/mL, or 1.1 μg/mL, and the resultant was left to stand at 4° C. for 1 hour. […] In each graph in FIG. 11, the ordinate represents FITC fluorescence intensity indicating the amount of the binding antibody and the abscissa represents antibody concentrations.

B1: mouse anti-CLDN6 antibody C7 (antibody, V domains shown)
VH: EVQLQQSGPELVKPGASVKISCKTSGYTFTEYTMHWVQQSHGKSLEWIGGVNPNSGDTSYNQKFKGKATLTVDKSSSTAYMELRSLTSEDSAVYYCARPGGYDVGYYAMDYWGQGTSVTVSS
VL: DIQMTQTASSLSASLGDRVTISCRASQDINNYLNWYQQKPDGTVKLLIYSTSRLHSGVPSRFSGSGSGTHYSLTITHLEQEDIATYFCQQGYPLPWTFGGGTKLEIK
notes: Mouse monoclonal antibody purified from hybridoma 218C7 culture supernatant; also called C7 antibody; 218C7
As for B1, the binding result is on record as “binds” with human CLDN6, “no binding (tested: 30 µg/mL (highest concentration tested))” with human CLDN3, “no binding (tested: 30 µg/mL (highest concentration tested))” with human CLDN4 and “binds” with human CLDN9.
